In the test the target is T1, human C5 (human, UniProt P01031 19-673; P01031 678-1676, Beta and alpha chains are disulfide-linked and the protein is glycosylated.).
T1 construct: Either in-house recombinant C5 or plasma derived C5 (CALBIOCHEM) was used; also called recombinant human C5; plasma derived human C5
As to the kind of experiment: Biacore, captured antibody, pH 7.4, 37 C.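 Further: biacore binding response of anti-C5 antibody light chain variants captured on chip with human C5 injected, ACES running buffer containing 1.2 mM CaCl₂, parent light chain antibody set to 100.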 A general note: Surface plasmon resonance follows binding to a sensor surface in real time, without labels.

This note sets out measurements from patent publication US20180016327A1 (Chugai, published 2018).

Method: The light chain variants were tested for the binding affinity to C5 at pH 7.4 and at 37 degrees C. using Biacore T200 instrument (GE Healthcare) or Biacore 4000 instrument (GE Healthcare). […] Anti-C5 antibodies were captured on an immobilized molecule, and then human C5 was injected. The running buffer used was pH 7.4 ACES Buffer containing 1.2 mM Ca (20 mM ACES, 150 mM NaCl, 1.2 mM CaCl₂, 0.05% Tween 20). A value, % binding, was determined by normalizing binding response with that of antibody comprising parent light chain as 100.

B1: CFP0018 (antibody, V domains shown)
VH: QVQLVQSGAEVKKPGSSVKVSCKASGGTFSSYAISWVRQAPGQGLEWMGGIIPIFGTANYAQKFQGRVTITADESTSTAYMELSSLRSEDTAVYYCARQLYGYYELDIWGQGTLVTVSS
VL: DIQMTQSPSSLSASVGDRVTITCRASQSISDDLAWYQQKPGKAPKLLIYEASSLQSGVPSRFSGSGSGTDFTLTISSLQPEDFATYYCQQYNSYPLTFGQGTKVEIK
notes: IgG format
With B1, the “% binding (parent = 100)” value worked out at 100%.

B2: CFP0017 17L 91R (antibody, V domains shown)
VH: QVQLVQSGAEVKKPGSSVKVSCKASGGTFSSYAISWVRQAPGQGLEWMGGIIPIFGTANYAQKFQGRVTITADESTSTAYMELSSLRSEDTAVYYCARGGWWGGALDYWGQGTLVTVSS
VL: DIQMTQSPSSLSASVGDRVTITCRASQSIEDDLAWYQQKPGKAPKLLIYHASSLQSGVPSRFSGSGSGTDFTLTISSLQPEDFATYYCQQRDSYPLTFGQGTKVEIK
As to B2, the “% binding (parent = 100)” value is -4%.

B3: CFP0018 18L 30A (antibody, V domains shown)
VH: QVQLVQSGAEVKKPGSSVKVSCKASGGTFSSYAISWVRQAPGQGLEWMGGIIPIFGTANYAQKFQGRVTITADESTSTAYMELSSLRSEDTAVYYCARQLYGYYELDIWGQGTLVTVSS
VL: DIQMTQSPSSLSASVGDRVTITCRASQSIADDLAWYQQKPGKAPKLLIYEASSLQSGVPSRFSGSGSGTDFTLTISSLQPEDFATYYCQQYNSYPLTFGQGTKVEIK
Turning to B3, the “% binding (parent = 100)” value is 21.2%.

B4: CFP0018 18L 30D (antibody, V domains shown)
VH: QVQLVQSGAEVKKPGSSVKVSCKASGGTFSSYAISWVRQAPGQGLEWMGGIIPIFGTANYAQKFQGRVTITADESTSTAYMELSSLRSEDTAVYYCARQLYGYYELDIWGQGTLVTVSS
VL: DIQMTQSPSSLSASVGDRVTITCRASQSIDDDLAWYQQKPGKAPKLLIYEASSLQSGVPSRFSGSGSGTDFTLTISSLQPEDFATYYCQQYNSYPLTFGQGTKVEIK
Consider B4, for which the “% binding (parent = 100)” value is 17%.

B5: CFP0018 18L 30N (antibody, V domains shown)
VH: QVQLVQSGAEVKKPGSSVKVSCKASGGTFSSYAISWVRQAPGQGLEWMGGIIPIFGTANYAQKFQGRVTITADESTSTAYMELSSLRSEDTAVYYCARQLYGYYELDIWGQGTLVTVSS
VL: DIQMTQSPSSLSASVGDRVTITCRASQSINDDLAWYQQKPGKAPKLLIYEASSLQSGVPSRFSGSGSGTDFTLTISSLQPEDFATYYCQQYNSYPLTFGQGTKVEIK
Turning to B5, the “% binding (parent = 100)” value was 201%.

B6: CFP0017 17L 92N (antibody, V domains shown)
VH: QVQLVQSGAEVKKPGSSVKVSCKASGGTFSSYAISWVRQAPGQGLEWMGGIIPIFGTANYAQKFQGRVTITADESTSTAYMELSSLRSEDTAVYYCARGGWWGGALDYWGQGTLVTVSS
VL: DIQMTQSPSSLSASVGDRVTITCRASQSIEDDLAWYQQKPGKAPKLLIYHASSLQSGVPSRFSGSGSGTDFTLTISSLQPEDFATYYCQQSNSYPLTFGQGTKVEIK
Consider B6, for which the “% binding (parent = 100)” value stood at 36.4%.

B7: CFP0018 18L 30H (antibody, V domains shown)
VH: QVQLVQSGAEVKKPGSSVKVSCKASGGTFSSYAISWVRQAPGQGLEWMGGIIPIFGTANYAQKFQGRVTITADESTSTAYMELSSLRSEDTAVYYCARQLYGYYELDIWGQGTLVTVSS
VL: DIQMTQSPSSLSASVGDRVTITCRASQSIHDDLAWYQQKPGKAPKLLIYEASSLQSGVPSRFSGSGSGTDFTLTISSLQPEDFATYYCQQYNSYPLTFGQGTKVEIK
B7: the “% binding (parent = 100)” value stood at 87.2%.

B8: CFP0017 17L 30D (antibody, V domains shown)
VH: QVQLVQSGAEVKKPGSSVKVSCKASGGTFSSYAISWVRQAPGQGLEWMGGIIPIFGTANYAQKFQGRVTITADESTSTAYMELSSLRSEDTAVYYCARGGWWGGALDYWGQGTLVTVSS
VL: DIQMTQSPSSLSASVGDRVTITCRASQSIDDDLAWYQQKPGKAPKLLIYHASSLQSGVPSRFSGSGSGTDFTLTISSLQPEDFATYYCQQSDSYPLTFGQGTKVEIK
In the case of B8, the “% binding (parent = 100)” value stood at 89.4%.

B9: CFP0017 (antibody, V domains shown)
VH: QVQLVQSGAEVKKPGSSVKVSCKASGGTFSSYAISWVRQAPGQGLEWMGGIIPIFGTANYAQKFQGRVTITADESTSTAYMELSSLRSEDTAVYYCARGGWWGGALDYWGQGTLVTVSS
VL: DIQMTQSPSSLSASVGDRVTITCRASQSIEDDLAWYQQKPGKAPKLLIYHASSLQSGVPSRFSGSGSGTDFTLTISSLQPEDFATYYCQQSDSYPLTFGQGTKVEIK
notes: IgG format
Turning to B9, the “% binding (parent = 100)” value came out at 100%.

B10: CFP0017 17L 50E (antibody, V domains shown)
VH: QVQLVQSGAEVKKPGSSVKVSCKASGGTFSSYAISWVRQAPGQGLEWMGGIIPIFGTANYAQKFQGRVTITADESTSTAYMELSSLRSEDTAVYYCARGGWWGGALDYWGQGTLVTVSS
VL: DIQMTQSPSSLSASVGDRVTITCRASQSIEDDLAWYQQKPGKAPKLLIYEASSLQSGVPSRFSGSGSGTDFTLTISSLQPEDFATYYCQQSDSYPLTFGQGTKVEIK
As for B10, the “% binding (parent = 100)” value stood at 1%.

B11: CFP0017 17L 91H (antibody, V domains shown)
VH: QVQLVQSGAEVKKPGSSVKVSCKASGGTFSSYAISWVRQAPGQGLEWMGGIIPIFGTANYAQKFQGRVTITADESTSTAYMELSSLRSEDTAVYYCARGGWWGGALDYWGQGTLVTVSS
VL: DIQMTQSPSSLSASVGDRVTITCRASQSIEDDLAWYQQKPGKAPKLLIYHASSLQSGVPSRFSGSGSGTDFTLTISSLQPEDFATYYCQQHDSYPLTFGQGTKVEIK
Turning to B11, the “% binding (parent = 100)” value was 21.8%.

B12: CFP0018 18L 30F (antibody, V domains shown)
VH: QVQLVQSGAEVKKPGSSVKVSCKASGGTFSSYAISWVRQAPGQGLEWMGGIIPIFGTANYAQKFQGRVTITADESTSTAYMELSSLRSEDTAVYYCARQLYGYYELDIWGQGTLVTVSS
VL: DIQMTQSPSSLSASVGDRVTITCRASQSIFDDLAWYQQKPGKAPKLLIYEASSLQSGVPSRFSGSGSGTDFTLTISSLQPEDFATYYCQQYNSYPLTFGQGTKVEIK
As to B12, the “% binding (parent = 100)” value came to 85.2%.

B13: CFP0017 17L 91Y (antibody, V domains shown)
VH: QVQLVQSGAEVKKPGSSVKVSCKASGGTFSSYAISWVRQAPGQGLEWMGGIIPIFGTANYAQKFQGRVTITADESTSTAYMELSSLRSEDTAVYYCARGGWWGGALDYWGQGTLVTVSS
VL: DIQMTQSPSSLSASVGDRVTITCRASQSIEDDLAWYQQKPGKAPKLLIYHASSLQSGVPSRFSGSGSGTDFTLTISSLQPEDFATYYCQQYDSYPLTFGQGTKVEIK
With B13, the “% binding (parent = 100)” value came to 0.3%.

B14: CFP0017 17L 92S (antibody, V domains shown)
VH: QVQLVQSGAEVKKPGSSVKVSCKASGGTFSSYAISWVRQAPGQGLEWMGGIIPIFGTANYAQKFQGRVTITADESTSTAYMELSSLRSEDTAVYYCARGGWWGGALDYWGQGTLVTVSS
VL: DIQMTQSPSSLSASVGDRVTITCRASQSIEDDLAWYQQKPGKAPKLLIYHASSLQSGVPSRFSGSGSGTDFTLTISSLQPEDFATYYCQQSSSYPLTFGQGTKVEIK
Turning to B14, the “% binding (parent = 100)” value turned out to be 79%.

B15: CFP0017 17L 30H (antibody, V domains shown)
VH: QVQLVQSGAEVKKPGSSVKVSCKASGGTFSSYAISWVRQAPGQGLEWMGGIIPIFGTANYAQKFQGRVTITADESTSTAYMELSSLRSEDTAVYYCARGGWWGGALDYWGQGTLVTVSS
VL: DIQMTQSPSSLSASVGDRVTITCRASQSIHDDLAWYQQKPGKAPKLLIYHASSLQSGVPSRFSGSGSGTDFTLTISSLQPEDFATYYCQQSDSYPLTFGQGTKVEIK
As for B15, the “% binding (parent = 100)” value stood at 52.1%.

B16: CFP0018 18L 30Q (antibody, V domains shown)
VH: QVQLVQSGAEVKKPGSSVKVSCKASGGTFSSYAISWVRQAPGQGLEWMGGIIPIFGTANYAQKFQGRVTITADESTSTAYMELSSLRSEDTAVYYCARQLYGYYELDIWGQGTLVTVSS
VL: DIQMTQSPSSLSASVGDRVTITCRASQSIQDDLAWYQQKPGKAPKLLIYEASSLQSGVPSRFSGSGSGTDFTLTISSLQPEDFATYYCQQYNSYPLTFGQGTKVEIK
As to B16, the “% binding (parent = 100)” value is 130%.

B17: CFP0017 17L 50A (antibody, V domains shown)
VH: QVQLVQSGAEVKKPGSSVKVSCKASGGTFSSYAISWVRQAPGQGLEWMGGIIPIFGTANYAQKFQGRVTITADESTSTAYMELSSLRSEDTAVYYCARGGWWGGALDYWGQGTLVTVSS
VL: DIQMTQSPSSLSASVGDRVTITCRASQSIEDDLAWYQQKPGKAPKLLIYAASSLQSGVPSRFSGSGSGTDFTLTISSLQPEDFATYYCQQSDSYPLTFGQGTKVEIK
As for B17, the “% binding (parent = 100)” value was determined as 3.3%.

B18: CFP0018 18L 30P (antibody, V domains shown)
VH: QVQLVQSGAEVKKPGSSVKVSCKASGGTFSSYAISWVRQAPGQGLEWMGGIIPIFGTANYAQKFQGRVTITADESTSTAYMELSSLRSEDTAVYYCARQLYGYYELDIWGQGTLVTVSS
VL: DIQMTQSPSSLSASVGDRVTITCRASQSIPDDLAWYQQKPGKAPKLLIYEASSLQSGVPSRFSGSGSGTDFTLTISSLQPEDFATYYCQQYNSYPLTFGQGTKVEIK
B18: the “% binding (parent = 100)” value is 111%.

B19: CFP0017 17L 30A (antibody, V domains shown)
VH: QVQLVQSGAEVKKPGSSVKVSCKASGGTFSSYAISWVRQAPGQGLEWMGGIIPIFGTANYAQKFQGRVTITADESTSTAYMELSSLRSEDTAVYYCARGGWWGGALDYWGQGTLVTVSS
VL: DIQMTQSPSSLSASVGDRVTITCRASQSIADDLAWYQQKPGKAPKLLIYHASSLQSGVPSRFSGSGSGTDFTLTISSLQPEDFATYYCQQSDSYPLTFGQGTKVEIK
Turning to B19, the “% binding (parent = 100)” value was 79.9%.

B20: CFP0017 17L 30S (antibody, V domains shown)
VH: QVQLVQSGAEVKKPGSSVKVSCKASGGTFSSYAISWVRQAPGQGLEWMGGIIPIFGTANYAQKFQGRVTITADESTSTAYMELSSLRSEDTAVYYCARGGWWGGALDYWGQGTLVTVSS
VL: DIQMTQSPSSLSASVGDRVTITCRASQSISDDLAWYQQKPGKAPKLLIYHASSLQSGVPSRFSGSGSGTDFTLTISSLQPEDFATYYCQQSDSYPLTFGQGTKVEIK
Regarding B20, the “% binding (parent = 100)” value was found to be 79.1%.

B21: CFP0018 18L 30E (antibody, V domains shown)
VH: QVQLVQSGAEVKKPGSSVKVSCKASGGTFSSYAISWVRQAPGQGLEWMGGIIPIFGTANYAQKFQGRVTITADESTSTAYMELSSLRSEDTAVYYCARQLYGYYELDIWGQGTLVTVSS
VL: DIQMTQSPSSLSASVGDRVTITCRASQSIEDDLAWYQQKPGKAPKLLIYEASSLQSGVPSRFSGSGSGTDFTLTISSLQPEDFATYYCQQYNSYPLTFGQGTKVEIK
On to B21, for which the “% binding (parent = 100)” value is 20.8%.
